# Measured values published in the RNAGym collection of RNA variant scans (doi:10.7554/elife.90254).
# B1: LINE1-full (parent)
# chain: UACGUAGGUGGUUUUCCCCUGAUAGUGCUAAGGGGGCCUGGAAGUUUGGACUGGGCAGAGCUCAACACAGCGUGGCAAAGUGGCUGUGGCUAGACUGCCUCUCUGGAUUCCUCGUCACUCAGCAGGGCAUCUCUGAGAGAAAUGCC
# Variants of: B1
# Assay: self-cleavage, relative activity (ratio to wild type); higher = more cleavage; in vitro, sequencing; the parent is a self-cleaving ribozyme
row,Variant,self-cleavage
1,UACGUAGGUGGUUUUCCCCUGAUAGUGCUAAGGGGGCCUGGAAGUUUGGACUGGGCAGAGCUCAACGCAGCGUGGCAAAGUGGCUGUGGCUAGACUGCCUCUCUGUAUUCCUCGUCACUCAGCAGGGCAUCUCUGAGAGAAAUGCC,0.33
2,UACGUAGGUGGUUUUCCCCUGAUAGUGCUAAGGGGGCCUGGAAGUUUGGACUGGGCAGAGCUCAACGCAGCGUGGCAAAGAGGCUGUGGCUAGACUGCCUCUCUGGAUUCCUCGUCACUCAGCAGGGCAUCUCUGAGAGAAAUGCC,0.63
3,UACGUAGGUGGUUUUCCCCUGAUAGUGCUAAGGGGGCCUGGAAGUUUGGACUGGGCAGAGCUCAACCCAGCGUGGCAAAGUGGCUGUGGCUAGACUGCCUCUCGGGAUUCCUCGUCACUCAGCAGGGCAUCUCUGAGAGAAAUGCC,0.14
4,UACGUAGGUGGUUUUCCCCUGAUAGUGCUAAGGGGGCCUGGAAGUUUGGACUGGGCAGAGCUCAACGCAGCGUGGCAAGGUGGCUGUGGCUAGACUGCCUCUCUGGAUUCCUCGUCACUCAGCAGGGCAUCUCUGAGAGAAAUGCC,0.5
5,UACGUAGGUGGUUUUCCCCUGAUAGUGCUAAGGGGGCCUGGAAGUUUGGACUGGGCAGAGCUCAACGCAGCGUGGCAAAGUGGCCGUGGCUAGACUGCCUCUCUGGAUUCCUCGUCACUCAGCAGGGCAUCUCUGAGAGAAAUGCC,0.1
6,UACGUAGGUGGUUUUCCCCUGAUAGUGCUAAGGGGGCCUGGAAGUUUGGACUGGGCAGAGCUCAACGCAGCGUGGCAAAGUGGCAGUGGCUAGACUGCCUCUCUGGAUUCCUCGUCACUCAGCAGGGCAUCUCUGAGAGAAAUGCC,0.08
7,UACGUAGGUGGUUUUCCCCUGAUAGUGCUAAGGGGGCCUGGAAGUUUGGACUGGGCAGAGCUCAACGCAGCGUGGCAAAGUGGCUGUGGCUAGACUGCCUCUCUGGAUUCCUCGUCACUCAGCAGGGCAUAUCUGAGAGAAAUGCC,0.72
8,UACGUAGGUGGUUUUCCCCUGAUAGUGCUAAGGGGGCCUGGAAGUUUGGACUGGGCAGAGCUCAACGCAGCGUGGCAAAGUGGCUGUGGCUAGACUGCCUCUCUGGAUUCCUCGUCACUCAGCAGGGCAUGUCUGAGAGAAAUGCC,0
9,UACGUAGGUGGUUUUCCCCUGAUAGUGCUAAGGGGGCCUGGAAGUUUGGACUGGGCAGAGCUCAACGCAGCGUGGCAAAGUGGCUGUGGCUAGACUGUCUCUCUGGAUUCCUCGUCACUCAGCAGGGCAUCUCUGAGAGAAAUGCC,0.06
10,UACGUAGGUGGUUUUCCCCUGAUAGUGCUAAGGGGGCCUGGAAGUUUGGACUGGGCAGAGCUCAACGCAGCGUGGCAAAGUAGCUGUGGCUAGACUGCCUCUCUGGAUUCCUCGUCACUCAGCAGGGCAUCUCUGAGAGAAAUGCC,0.23
11,UACGUAGGUGGUUUUCCCCUGAUAGUGCUAAGGGGGCCUGGAAGUUUGGACUGGGCAGAGCUCAACGCAGCGCGGCAAAGUGGCUGUGGCUAGACUGCCUCUCUGGAUUCCUCGUCACUCAGCAGGGCAUCUCUGAGAGAAAUGCC,0.66
12,UACGUAGGUGGUUUUCCCCUGAUAGUGCUAAGGGGGCCUGGAAGUUUGGACUGGGCAGAGCUCAACGCAGCGAGGCAAAGUGGCUGUGGCUAGACUGCCUCUCUGGAUUCCUCGUCACUCAGCAGGGCAUCUCUGAGAGAAAUGCC,0.24
13,UACGUAGGUGGUUUUCCCCUGAUAGUGCUAAGGGGGCCUGGAAGUUUGGACUGGGCAGAGCUCAACGCAGCGUGGCAAAGUGGCUGUGGCUAGACUGCCUCUCUGGAUUCCUCGUCACUCAGCAGGGCAUCUCUGAGAGAAAUACC,0.69
14,UACGUAGGUGGUUUUCCCCUGAUAGUGCUAAGGGGGCCUGGAAGUUUGGACUGGGCAGAGCUCAACCCAGCGUGGCAAAGUGGCUGUGGCUAGACUGCCUCUCUGGAUUCCUCGUCACUCAGCAGGGCAUCUCAGAGAGAAAUGCC,0.02
15,UACGUAGGUGGUUUUCCCCUGAUAGUGCUAAGGGGGCCUGGAAGUUUGGACUGGGCAGAGCUCAACCCAGCGUGGCAAAGUGGCUGUGGCUAGACUGCCUCUCUGGAUUCCUCGUCACUCAGCAGGGCAUCUCCGAGAGAAAUGCC,0.09
16,UACGUAGGUGGUUUUCCCCUGAUAGUGCUAAGGGGGCCUGGAAGUUUGGACUGGGCAGAGCUCAACGCAGCGUGGCAAAGUGGCUGUGGCUAGACUGCCUCUCUGGAUUCCUCGUCACUCCGCAGGGCAUCUCUGAGAGAAAUGCC,0.62
17,UACGUAGGUGGUUUUCCCCUGAUAGUGCUAAGGGGGCCUGGAAGUUUGGACUGGGCAGAGCUCAACGCAGCGUGGCAAAGUGGCUGUGGCUAGACUGCCUCUCUGGAUUCCUCGUCACUCAGCAGGGCAUCUCUGAGUGAAAUGCC,0.56
18,UACGUAGGUGGUUUUCCCCUGAUAGUGCUAAGGGGGCCUGGAAGUUUGGACUGGGCAGAGCUCAACGCAGCGUGGCAAAGUGGCUGUGGCUAGACUGCCUCUCUGGAUUCCUCGUCACUCAGCAGGGCAUCUCUGAGGGAAAUGCC,0.67
19,UACGUAGGUGGUUUUCCCCUGAUAGUGCUAAGGGGGCCUGGAAGUUUGGACUGGGCAGAGCUCAACGCAGCGUGGCAAAGUGGCUGUGGCUAGACUGCCUCUCUGGAUUCCUCGUCACUCAGCAGGGCAUCUCUGAGAGGAAUGCC,0.42
20,UACGUAGGUGGUUUUCCCCUGAUAGUGCUAAGGGGGCCUGGAAGUUUGGACUGGGCAGAGCUCAACGCAGCGUGGCAAAGUGGCUGUGGCUAGACUGCAUCUCUGGAUUCCUCGUCACUCAGCAGGGCAUCUCUGAGAGAAAUGCC,0.17

row,Variant,self-cleavage
1,UACGUAGGUGGUUUUCCCCUGAUAGUGCUAAGGGGGCCUGGAAGUUUGGACUGGGCAGAGCUCAACGCAGCAUGGCAAAGUGGCUGUGGCUAGACUGCCUCUCUGGAUUCCUCGUCACUCAGCAGGGCAUCUCUGAGAGAAAUGCC,0.21
2,UACGUAGGUGGUUUUCCCCUGAUAGUGCUAAGGGGGCCUGGAAGUUUGGACUGGGCAGAGCUCAACGCAGCGUGGCGAAGUGGCUGUGGCUAGACUGCCUCUCUGGAUUCCUCGUCACUCAGCAGGGCAUCUCUGAGAGAAAUGCC,0.91
3,UACGUAGGUGGUUUUCCCCUGAUAGUGCUAAGGGGGCCUGGAAGUUUGGACUGGGCAGAGCUCAACGUAGCGUGGCAAAGUGGCUGUGGCUAGACUGCCUCUCUGGAUUCCUCGUCACUCAGCAGGGCAUCUCUGAGAGAAAUGCC,0.04
4,UACGUAGGUGGUUUUCCCCUGAUAGUGCUAAGGGGGCCUGGAAGUUUGGACUGGGCAGAGCUCAACGCAGCGUUGCAAAGUGGCUGUGGCUAGACUGCCUCUCUGGAUUCCUCGUCACUCAGCAGGGCAUCUCUGAGAGAAAUGCC,0.54
5,UACGUAGGUGGUUUUCCCCUGAUAGUGCUAAGGGGGCCUGGAAGUUUGGACUGGGCAGAGCUCAACGCAGCGUGGCAAAGUGCCUGUGGCUAGACUGCCUCUCUGGAUUCCUCGUCACUCAGCAGGGCAUCUCUGAGAGAAAUGCC,0.13
6,UACGUAGGUGGUUUUCCCCUGAUAGUGCUAAGGGGGCCUGGAAGUUUGGACUGGGCAGAGCUCAACGCAGCGUGGUAAAGUGGCUGUGGCUAGACUGCCUCUCUGGAUUCCUCGUCACUCAGCAGGGCAUCUCUGAGAGAAAUGCC,0.62
7,UACGUAGGUGGUUUUCCCCUGAUAGUGCUAAGGGGGCCUGGAAGUUUGGACUGGGCAGAGCUCAACGCAGCGUGGCAAAGUGGCUGUGGCUAGACUGCCUCUCUGGAUUCCUCGUCACUCAGCAGGGCAUCUCUAAGAGAAAUGCC,0.68
8,UACGUAGGUGGUUUUCCCCUGAUAGUGCUAAGGGGGCCUGGAAGUUUGGACUGGGCAGAGCUCAACCCAGCGUGGCAAAGUGGCUGUGGCUAGACUGCCUCUCUGGAUCCCUCGUCACUCAGCAGGGCAUCUCUGAGAGAAAUGCC,0.06
9,UACGUAGGUGGUUUUCCCCUGAUAGUGCUAAGGGGGCCUGGAAGUUUGGACUGGGCAGAGCUCAACGCCGCGUGGCAAAGUGGCUGUGGCUAGACUGCCUCUCUGGAUUCCUCGUCACUCAGCAGGGCAUCUCUGAGAGAAAUGCC,0.37
10,UACGUAGGUGGUUUUCCCCUGAUAGUGCUAAGGGGGCCUGGAAGUUUGGACUGGGCAGAGCUCAACGCUGCGUGGCAAAGUGGCUGUGGCUAGACUGCCUCUCUGGAUUCCUCGUCACUCAGCAGGGCAUCUCUGAGAGAAAUGCC,0.06
11,UACGUAGGUGGUUUUCCCCUGAUAGUGCUAAGGGGGCCUGGAAGUUUGGACUGGGCAGAGCUCAACGCAGCGUGGCAAAGUGGCUAUGGCUAGACUGCCUCUCUGGAUUCCUCGUCACUCAGCAGGGCAUCUCUGAGAGAAAUGCC,0.05
12,UACGUAGGUGGUUUUCCCCUGAUAGUGCUAAGGGGGCCUGGAAGUUUGGACUGGGCAGAGCUCAACGCAGCGUGGCAAAGUGGCUGUGGCUAGAAUGCCUCUCUGGAUUCCUCGUCACUCAGCAGGGCAUCUCUGAGAGAAAUGCC,0.07
13,UACGUAGGUGGUUUUCCCCUGAUAGUGCUAAGGGGGCCUGGAAGUUUGGACUGGGCAGAGCUCAACGCAGCGUGGCAAAGUGGCUGUGGCUAGACUGCCUUUCUGGAUUCCUCGUCACUCAGCAGGGCAUCUCUGAGAGAAAUGCC,0.75
14,UACGUAGGUGGUUUUCCCCUGAUAGUGCUAAGGGGGCCUGGAAGUUUGGACUGGGCAGAGCUCAACCCAGCGUGGCAAAGUGGCUGUGGCUAGACUGCCUCUCUGGAUUCCUCGUCACUCAGCAGGGCACCUCUGAGAGAAAUGCC,0.04
15,UACGUAGGUGGUUUUCCCCUGAUAGUGCUAAGGGGGCCUGGAAGUUUGGACUGGGCAGAGCUCAACGCAGCGUGGCAUAGUGGCUGUGGCUAGACUGCCUCUCUGGAUUCCUCGUCACUCAGCAGGGCAUCUCUGAGAGAAAUGCC,0.65
16,UACGUAGGUGGUUUUCCCCUGAUAGUGCUAAGGGGGCCUGGAAGUUUGGACUGGGCAGAGCUCAACGCAGCGUGGCAAAGUGGCUGUGGCUAGACUGCCUCUCUGGAUUUCUCGUCACUCAGCAGGGCAUCUCUGAGAGAAAUGCC,0.46
17,UACGUAGGUGGUUUUCCCCUGAUAGUGCUAAGGGGGCCUGGAAGUUUGGACUGGGCAGAGCUCAACGCAGCGUGGCAAAGUGGCUGUGGCUAGACUGCCUCUCUGGAUUCCUCGUCAAUCAGCAGGGCAUCUCUGAGAGAAAUGCC,0.58
18,UACGUAGGUGGUUUUCCCCUGAUAGUGCUAAGGGGGCCUGGAAGUUUGGACUGGGCAGAGCUCAACGCAGCGUGGCAAAGUGGCUGUGGCUAGACUGCCUCUCUGGAUUCCUCGUCACUCAGCGGGGCAUCUCUGAGAGAAAUGCC,0.26
19,UACGUAGGUGGUUUUCCCCUGAUAGUGCUAAGGGGGCCUGGAAGUUUGGACUGGGCAGAGCUCAACGCAGCGUGGCAAAGUGGCUGUGGCUAGACUGCCUCUUUGGAUUCCUCGUCACUCAGCAGGGCAUCUCUGAGAGAAAUGCC,0.25
